From publication doi:10.1101/2023.07.10.548322

How the values were obtained:
Experiment in all cases: SPR
aSyn dCterm = aSyn dCterm (UniProt P37840 1-95, del96-140)
aSyn dNAC = aSyn dNAC (UniProt P37840 1-140, del61-95)
[1] = biological target: alpha-synuclein (aSyn) WT (human, UniProt P37840 1-140)

Binder	binding result (aSyn dCterm)	binding result (aSyn dNAC)	Kd [1] [µM]	binding result [1]
UUAGGGUUAGGGUUAGGGUUAGGG (structured_RNA) [G4tr biotin]	binds	binds	3.63 ± 0.63	–
UUACCGUUACCGUUACCGUUACCG (ssRNA) [G4mt biotin]	–	–	–	no binding
